“And” between values parts separate entries of the source, which are not always exact repeats. Equal entries are not always repeated.
B1: wild type human βB1-crystallin (natural protein, UniProt P53674 1-252, looked up)
chain: MSQAAKASASATVAVNPGPDTKGKGAPPAGTSPSPGTTLAPTTVPITSAKAAELPPGNYRLVVFELENFQGRRAEFSGECSNLADRGFDRVRSIIVSAGPWVAFEQSNFRGEMFILEKGEYPRWNTWSSSYRSDRLMSFRPIKMDAQEHKISLFEGANFKGNTIEIQGDDAPSLWVYGFSDRVGSVKVSSGTWVGYQYPGYRGYQYLLEPGDFRHWNEWGAFQPQMQSLRRLRDKQWHLEGSFPVLATEPPK
notes: human βB1-crystallin, wild type, recombinant; Mixture of monomers and dimers at the concentrations of the 1:1 experiments; dimer at the higher concentration of the 5:1 experiment; source: E. coli, purified (successive ion-exchange chromatography)
B2: doubly deamidated mutant βA3 Q85E/Q180E (natural protein, human, UniProt P05813 1-215, looked up)
chain: METQAEQQELETLPTTKMAQTNPTPGSLGPWKITIYDQENFQGKRMEFTSSCPNVSERSFDNVRSLKVESGAWIGYEHTSFCGQEFILERGEYPRWDAWSGSNAYHIERLMSFRPICSANHKESKMTIFEKENFIGRQWEISDDYPSLQAMGWFNNEVGSMKIQSGAWVCYQYPGYRGYEYILECDHHGGDYKHWREWGSHAQTSQIQSIRRIQQ
notes: human βA3-crystallin with Q85E and Q180E (mimic of deamidation), recombinant; Homo-dimer by SEC-MALS at 37 °C; precipitates at 55 °C when alone; also called DM βA3; βA3 DM; source: E. coli, purified (successive ion-exchange chromatography)

Legend:
[1] = molecular target: the molecule itself; experiment: SEC-MALS; each crystallin alone, incubated 90 min at 37 °C; Superose 12 10/300 GL; pH 6.8, 29 mM Na2HPO4, 29 mM NaH2PO4, 100 mM KCl, 1 mM EDTA, 1 mM DTT
[2] = molecular target: the molecule itself; experiment: SEC-MALS; 5:1 molar ratio of βB1 to βA3 (to favour the βB1 dimer), injected immediately (0 min) or after 30 min at 37 °C; same buffer
[3] = molecular target: B1; experiment: SEC-MALS; 1:1 molar ratio of βA3 (WT or DM) with βB1 or βB2, final 0.4–0.5 mg/ml, incubated 90 min at 55 °C; filtered before injection; same buffer; conditions: both partners purified
[4] = molecular target: B2; experiment: native gel or EMSA; blue-native PAGE, 4%–12% Bis-Tris gel, pH 7.0, 200 V, 4 °C; mixtures incubated at 37 °C for 60 min before the gel; conditions: both partners purified

Binder | stoichiometry N [1] | stoichiometry N [2] | binding result [3] | binding result [4]
B1 | 2 | – | – | –
wild type human βA3-crystallin (natural protein, UniProt P05813 1-215, looked up, human βA3-crystallin, wild type, recombinant; no tag is mentioned; also called WT βA3; βA3 WT; source: E. coli, purified (successive ion-exchange chromatography)) METQAEQQELETLPTTKMAQTNPTPGSLGPWKITIYDQENFQGKRMEFTSSCPNVSERSFDNVRSLKVESGAWIGYEHTSFCGQQFILERGEYPRWDAWSGSNAYHIERLMSFRPICSANHKESKMTIFEKENFIGRQWEISDDYPSLQAMGWFNNEVGSMKIQSGAWVCYQYPGYRGYQYILECDHHGGDYKHWREWGSHAQTSQIQSIRRIQQ | – | 2 | binds | –
B2 | 2 | – | – | –
wild type human βB2-crystallin (natural protein, UniProt P43320 1-205, looked up, human βB2-crystallin, wild type, recombinant; source: E. coli, purified (successive ion-exchange chromatography)) MASDHQTQAGKPQSLNPKIIIFEQENFQGHSHELNGPCPNLKETGVEKAGSVLVQAGPWVGYEQANCKGEQFVFEKGEYPRWDSWTSSRRTDSLSSLRPIKVDSQEHKIILYENPNFTGKKMEIIDDDVPSFHAHGYQEKVSSVRVQSGTWVGYQYPGYRGLQYLLEKGDYKDSSDFGAPHPQVQSVRRIRDMQWHQRGAFHPSN | 2 and 4 | – | – | binds

Source: paper PMC2633459 (Molecular Vision, 2009)
